Usually IC50 stands for the point on the concentration scale where inhibition reaches its midpoint. The low end stands for inhibition by little substance, the high end for a need for much substance.

The nature of series [1]: Dynamic light scattering (DLS) particle radius. In kind it is physicochemical. Particulars: for Rh* (most common radius measured at 90° using DLS): γ-PGA alone or peptide/γ-PGA NPs 1:1 w/w, n = 9; for Rh: n = 4. As for the experimental part:
(§1) NPs diameter was measured by dynamic light scattering (DLS) (CGS-3 LSE-5003, ALV, Langen, Germany) at different angles of the detector (90, 60 and 30 degrees) and by Small angle X-ray scattering (SAXS) (SAXLAB's GANESHA 300 XL, Skovlunde, Denmark) Sealed Tube Generator: Cu-Ka 0.154 nm (Genix 3D) equipped with a 2D detector (Pilatus 300k). Surface charge was measured by Zetasizer (Zetasizer Nano ZS, Malvern, Worcestershire, UK) and subsequently the data was analyzed using the Smoluchowski model.

The nature of series [2]: Zeta potential / surface charge by Zetasizer (Smoluchowski model). In kind it is physicochemical. To be noted: for ξ zeta potential: n = 4. Here is the method: as §1
The nature of series [3]: Circular dichroism (CD) secondary structure. Format: physicochemical. To be noted: for change of CD pattern on mixing with γ-PGA: peptide:γ-PGA 0.25:0.25 mg/ml. Here is the method:
CD measurements were performed to characterize secondary structure of peptides in the NPs solution. Spectra in the range of 190-260 nm were recorded at room temperature on CD spectropolarimeter (J-715, Jasco, Tokyo, Japan), using a 1-mm quartz cuvette.

Series [4] concerns Saos2 cells. The series is described as follows: XTT cell viability (cytotoxicity). To be noted: Homo sapiens, SAOS-2; Saos2 cultures; results not shown. Format: cell-based. Here is the method: The cytotoxicity of coated nanoparticles was assessed by monitoring the viability of Saos2 cells in presence of the NPs. All cell cultured were carried in air supplemented with 5% CO2 at 37° C. In 24 wells plate, 3*10^4 cells/well were seeded, in DMEM complete medium and cultured for 4 h. The cells were supplemented with different concentrations of LND-NPs, control NPs, or free LND and cultured overnight. Cells viability was determined by XTT assay following the manufacturer instructions (Life Technologies, California, USA). The XTT solution was added to the wells and cells were incubated for 4 hr after which the absorbance of the samples was measured at 490 nm, by a microplate-reader (BioTek instruments, Winoosky, Vt.). Cells viability is reported as percentage compared to untreated cultured cells.
Background: Tetrazolium dyes change colour on reduction, which living cells bring about.

Setting [5] is: γ-PGA alone or peptide/γ-PGA NPs 1:1 w/w, n = 9.
The mark [6] stands for this setting: NPs coated with PFK 0.1 mg/ml, single or repeated addition.
The mark [7] stands for this setting: PFK alone or PFK/γ-PGA NPs at different PFK:γ-PGA weight ratios, n = 3.
Where [8] appears, read: γ-PGA/PFK NPs coated with the peptide, coating solution 0.1 mg/ml.
Setting [9] is: γ-PGA/PFK NPs coated with the peptide, coating solution 0.5 mg/ml.

“KFFFKKFFKFFKK [rFK, scrambled order control of FK]”: the “Rh* (most common radius measured at 90° using DLS)” value (from here on “Rh*”) in series [1] was determined as 6.45 ± 1.2 nm. For the same molecule, the ζ zeta potential in series [2] (setting [5]) is recorded as −38.78 ± 3.92 mV. The “change of CD pattern on mixing with γ-PGA” value (from here on “change of CD pattern”) in series [3] is reported as “primarily the Phe-Phe side chain type of absorption”.
For “FK(FK)5F (FKFKFKFKFKFKF) [free termini version of the amphiphilic peptide]”, in that order: 7.41 ± 1.7 nm, −43.71 ± 9.2 mV and “most pronounced shift to β-sheet structure”.
In turn, `O=C(O)c1nn(Cc2ccc(Cl)cc2Cl)c2ccccc12` [free LND, Lonidamine] gave an IC50 in series [4] of 1300 µM.
As to “PK(FK)5P (PKFKFKFKFKFKP) [PFK, proline capped amphiphilic cationic 13-residue peptide]”, the Rh came out at 9.8 ± 0.23 nm in series [1] (setting [6]), 9.8 ± 0.23 nm in series [1] (setting [8]) and 52.2 ± 50.63 nm in series [1] (setting [9]). Moreover, the “Radius (Rh, DLS at 90°)” value in series [1] (setting [7]) was “Non spherical NPs”. Also, the “Rh*” value in series [1] came to 11.4 ± 2 nm. For the same molecule, the results for the ξ zeta potential in series [2] (setting [6]), in series [2] (setting [8]) and in series [2] (setting [9]) were −33.52 ± 3.11 mV, −33.52 ± 3.11 mV and −35.42 ± 4.5 mV, respectively. For the same molecule, the ζ zeta potential in series [2] (setting [7]) is 11.6 ± 5 mV; in series [2] (setting [5]), −49.3 ± 2 mV. In addition, in series [3] (PFK alone or 1:1 w/w with γ-PGA), the “θ215/θ203 (β-sheet relative to unfolded) as function of pH” value is given as “steep increase in θ215/θ203 value at pH˜8”. The “change of CD pattern” value in series [3] is listed as “most pronounced shift to β-sheet structure”.
Regarding “KFFPKKPFKFFKK [rPFK, scrambled order control of PFK]”, in series [1], the “Rh*” value is given as 9.57 ± 6 nm. In addition, the values for the Rh in series [1] (setting [8]) and in series [1] (setting [9]) were 11.04 ± 7.77 nm and 9.72 ± 1.03 nm, respectively. In addition, the ζ zeta potential in series [2] (setting [5]) was −25.26 ± 8.79 mV. The values for the ξ zeta potential in series [2] (setting [8]) and in series [2] (setting [9]) were −37.26 ± 7.03 mV and −36.0 ± 2.69 mV, respectively. Besides, the “change of CD pattern” value in series [3] is “almost no change in its CD pattern”.
